Measurements: publication PMC4102529, “FRET Based Quantification and Screening Technology Platform for the Interactions of Leukocyte Function-Associated Antigen-1 (LFA-1) with InterCellular Adhesion Molecule-1 (ICAM-1)” (PLoS ONE, 2014)

What was measured:
[1] = target: human recombinant ICAM-1 (D1-D2-Fc), Alexa Fluor 555 conjugate (human) (UniProt P05362); assay: FRET or BRET; steady-state, in solution; emission spectra at 470 nm excitation of mixtures with Alexa Fluor 555-D1-D2-Fc constant at 100 nM and Alexa Fluor 488-LFA-1 at 25-300 nM (A/D 8.40-0.70); incubated 30 minutes at room temperature; FRET efficiency by Eq. (3)
Chain of human recombinant ICAM-1 (D1-D2-Fc), Alexa Fluor 555 conjugate (human) (P05362 28-532): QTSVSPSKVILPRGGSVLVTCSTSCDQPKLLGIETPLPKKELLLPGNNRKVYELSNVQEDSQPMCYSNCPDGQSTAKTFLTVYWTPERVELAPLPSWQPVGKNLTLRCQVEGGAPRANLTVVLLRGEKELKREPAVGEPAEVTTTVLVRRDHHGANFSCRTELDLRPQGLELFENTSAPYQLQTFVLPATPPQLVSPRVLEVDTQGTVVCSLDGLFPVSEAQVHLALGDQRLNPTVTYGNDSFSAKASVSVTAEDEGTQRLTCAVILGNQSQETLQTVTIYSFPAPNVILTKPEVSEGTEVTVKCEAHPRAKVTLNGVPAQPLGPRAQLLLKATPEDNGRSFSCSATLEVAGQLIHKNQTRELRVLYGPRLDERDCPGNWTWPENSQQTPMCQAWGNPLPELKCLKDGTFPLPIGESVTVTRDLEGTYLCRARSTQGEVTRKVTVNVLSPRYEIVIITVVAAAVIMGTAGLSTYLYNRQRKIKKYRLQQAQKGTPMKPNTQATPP

[2] = target: recombinant human integrin LFA-1 (αLβ2), Alexa Fluor 488 conjugate (human) (UniProt P20701); assay: FRET or BRET; steady-state, in solution, 96-well plate; Alexa Fluor 488-LFA-1 (donor) fixed at 100 nM, Alexa Fluor 555-D1-D2-Fc (acceptor) varied from 0 to 1.6 µM; PBS pH 7.4, 1 mM EGTA, 2 mM Mg2+; fit assuming one-to-one interaction
Chain of recombinant human integrin LFA-1 (αLβ2), Alexa Fluor 488 conjugate (human) (P20701 26-1090, chain 1 of 2): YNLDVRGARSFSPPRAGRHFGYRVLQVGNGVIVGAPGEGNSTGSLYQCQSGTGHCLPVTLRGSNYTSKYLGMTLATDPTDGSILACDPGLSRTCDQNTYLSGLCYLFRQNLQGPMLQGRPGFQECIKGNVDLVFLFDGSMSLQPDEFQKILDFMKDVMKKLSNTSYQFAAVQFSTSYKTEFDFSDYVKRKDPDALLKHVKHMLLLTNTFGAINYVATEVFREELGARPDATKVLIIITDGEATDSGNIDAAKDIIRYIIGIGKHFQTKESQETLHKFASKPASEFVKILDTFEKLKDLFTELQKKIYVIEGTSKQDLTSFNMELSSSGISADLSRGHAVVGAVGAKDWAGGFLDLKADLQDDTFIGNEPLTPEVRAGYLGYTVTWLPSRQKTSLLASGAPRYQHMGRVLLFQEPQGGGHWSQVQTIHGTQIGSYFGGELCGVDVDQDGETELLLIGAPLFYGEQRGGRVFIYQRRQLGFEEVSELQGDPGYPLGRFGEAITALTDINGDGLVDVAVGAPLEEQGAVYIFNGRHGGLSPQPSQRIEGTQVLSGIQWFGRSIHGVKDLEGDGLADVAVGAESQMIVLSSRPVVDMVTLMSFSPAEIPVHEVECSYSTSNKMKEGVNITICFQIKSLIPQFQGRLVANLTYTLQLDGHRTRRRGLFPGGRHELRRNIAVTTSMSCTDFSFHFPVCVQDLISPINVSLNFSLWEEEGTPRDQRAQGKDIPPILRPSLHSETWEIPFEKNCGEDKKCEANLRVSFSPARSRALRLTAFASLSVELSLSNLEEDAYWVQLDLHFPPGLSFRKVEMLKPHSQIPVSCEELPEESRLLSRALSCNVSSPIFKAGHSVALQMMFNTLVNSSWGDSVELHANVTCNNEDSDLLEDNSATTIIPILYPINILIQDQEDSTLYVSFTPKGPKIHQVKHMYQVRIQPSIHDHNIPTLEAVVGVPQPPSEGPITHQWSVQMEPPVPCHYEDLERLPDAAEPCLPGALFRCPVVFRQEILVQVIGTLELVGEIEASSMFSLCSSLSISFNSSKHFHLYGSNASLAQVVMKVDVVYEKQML
Chain of recombinant human integrin LFA-1 (αLβ2), Alexa Fluor 488 conjugate (human) (P05107 23-700, chain 2 of 2, further chain): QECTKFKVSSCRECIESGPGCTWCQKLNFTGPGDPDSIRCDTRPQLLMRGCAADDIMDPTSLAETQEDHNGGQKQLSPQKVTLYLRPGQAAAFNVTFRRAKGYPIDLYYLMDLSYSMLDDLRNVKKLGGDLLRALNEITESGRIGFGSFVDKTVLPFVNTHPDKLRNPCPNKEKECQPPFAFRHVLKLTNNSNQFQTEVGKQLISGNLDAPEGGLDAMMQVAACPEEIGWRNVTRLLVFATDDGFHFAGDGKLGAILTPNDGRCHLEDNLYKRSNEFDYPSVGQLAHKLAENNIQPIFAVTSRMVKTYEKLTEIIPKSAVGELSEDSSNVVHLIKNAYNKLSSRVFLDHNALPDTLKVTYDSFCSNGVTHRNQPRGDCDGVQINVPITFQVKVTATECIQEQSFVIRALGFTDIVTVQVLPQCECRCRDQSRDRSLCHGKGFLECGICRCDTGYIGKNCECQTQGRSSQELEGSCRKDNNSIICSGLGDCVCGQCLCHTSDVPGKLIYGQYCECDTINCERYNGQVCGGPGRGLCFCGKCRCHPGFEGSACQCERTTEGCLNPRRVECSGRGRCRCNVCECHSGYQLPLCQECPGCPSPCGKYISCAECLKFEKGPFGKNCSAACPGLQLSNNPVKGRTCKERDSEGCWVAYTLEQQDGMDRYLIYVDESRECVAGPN

[3] = target: human recombinant ICAM-1 (D1-D2-Fc), Alexa Fluor 555 conjugate (human) (UniProt P05362); assay: FRET or BRET; steady-state, in solution competition screening, 96-well plate; Alexa Fluor 488-LFA-1 (100 nM) mixed with peptide (0.02, 0.2, 2, 20 µM), then incubated with Alexa Fluor 555-D1-D2-Fc (100 nM) for 30 min in the dark; PBS pH 7.4, 1 mM EGTA, 2 mM Mg2+; inhibition efficiency from the FRET efficiency

Substance: recombinant human integrin LFA-1 (αLβ2), Alexa Fluor 488 conjugate (from UniProt P20701 26-1090; P05107 23-700) (complex)
- FRET efficiency (%) at A/D ratio 2.12 (100 nM LFA-1) [1]: 53.5%

Substance: human recombinant ICAM-1 (D1-D2-Fc), Alexa Fluor 555 conjugate (from UniProt P05362 28-532) (Fc fusion)
- Kd [2]: 0.0179 µM

Substance: CD11a(441–465) peptide
- inhibition efficiency of the LFA-1/D1-D2-Fc interaction at 0.02 µM peptide [3]: 20.9%
- inhibition efficiency of the LFA-1/D1-D2-Fc interaction at 0.2 µM peptide [3]: 37.1%
- inhibition efficiency of the LFA-1/D1-D2-Fc interaction at 2 µM peptide [3]: 46.9%
- inhibition efficiency of the LFA-1/D1-D2-Fc interaction at 20 µM peptide [3]: 62%
